Laboratory results reported in patent publication US20190100587A1 (COVAGEN, published 2019).
Like-named read-outs stand apart in the source and are kept apart here.

How the values were obtained:
[1] = target: T1, human recombinant FcγRI (Sino Biological) (human, UniProt P12314 16-288, limits assumed); assay: SPR (BIAcore), FcγRI on chip, 1:1 Langmuir model
T1 construct: Amine-coupled to a BIAcore CM5 chip (1500 RU); also called CD64

[2] = target: T1, human recombinant FcγRI (Sino …); assay: SPR (BIAcore), FcγRI on chip, kinetic (koff/kon)
[3] = target: T1, human recombinant FcγRI (Sino …); assay: SPR (BIAcore), FcγRI on chip, steady-state model
[4] = target: T2, human recombinant FcRn (Sino Biological) (human, UniProt P55899 24-297; P61769 21-119); assay: SPR (BIAcore), FcRn on chip, pH 6.0, steady-state model
T2 construct: Amine-coupled to a CM5 chip (600 RU); also called neonatal Fc receptor

[5] = target: T3, human recombinant FcγRIIIA (158F; R&D Systems) (human, UniProt P08637 17-208); assay: SPR (BIAcore), FcγRIIIA 158F on chip, 1:1 Langmuir model
T3 construct: Amine-coupled to a BIAcore CM5 chip (1400 RU); also called CD16A

[6] = target: T3, human recombinant FcγRIIIA (158F; R&D …); assay: SPR (BIAcore), FcγRIIIA 158F on chip, kinetic (koff/kon)
[7] = target: T3, human recombinant FcγRIIIA (158F; R&D …); assay: SPR (BIAcore), FcγRIIIA 158F on chip, steady-state model
[8] = target: Human C1q (EMD Millipore) (human, UniProt P02745 23-245; P02746 28-253; P02747 29-245); assay: SPR (BIAcore T100), antibody on CM5 chip, C1q injected, steady-state model
[9] = target: T4, His-tagged human FcγRI (R&D, carrier-free formulation) (human, UniProt P12314 16-288); assay: AlphaScreen competition on His-tagged FcγRI; competitor biotinylated B21M LALA IgG1
T4 construct: also called CD64; human FcγR1

[10] = target: T5, human CD3 on CD3+ Jurkat cells (human); assay: flow cytometry on CD3+ Jurkat cells, bound antibody detected with anti-human IgG-Alexa488
T5 construct: whole, on cells

[11] = target: T6, His-tagged human FcγRIIA (R&D, carrier-free formulation) (human, UniProt P12318 36-218, limits assumed); assay: AlphaScreen competition assay; titrated antibody competes with biotinylated B21M IgG1 for His-tagged human FcγRIIA
T6 construct: also called CD32A
T6 sequence (looked up): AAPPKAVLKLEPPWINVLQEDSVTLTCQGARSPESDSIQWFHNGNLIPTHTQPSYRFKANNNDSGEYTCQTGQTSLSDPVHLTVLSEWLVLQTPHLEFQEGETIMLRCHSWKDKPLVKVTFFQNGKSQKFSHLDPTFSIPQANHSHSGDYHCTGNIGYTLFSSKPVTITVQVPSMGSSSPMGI

[12] = target: T6, His-tagged human FcγRIIA (R&D, …); assay: as above; remark: listed apart in the source
[13] = target: T7, His-tagged human FcγRIIB (R&D, carrier-free formulation) (human, UniProt P31994 46-217, limits assumed); assay: AlphaScreen competition assay; titrated antibody competes with biotinylated B21M IgG1 for His-tagged human FcγRIIB
T7 construct: also called CD32B
T7 sequence (looked up): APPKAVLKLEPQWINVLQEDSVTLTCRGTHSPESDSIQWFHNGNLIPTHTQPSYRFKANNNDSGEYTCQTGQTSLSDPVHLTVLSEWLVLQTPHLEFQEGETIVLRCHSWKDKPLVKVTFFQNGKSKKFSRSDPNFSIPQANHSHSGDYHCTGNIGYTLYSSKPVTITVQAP

[14] = target: T8, His-tagged human FcγRIIIA (R&D, carrier-free formulation) (human, UniProt P08637 17-208); assay: AlphaScreen competition assay; titrated antibody competes with biotinylated B21M IgG1 for His-tagged human FcγRIIIA
T8 construct: also called CD16A

[15] = target: T8, His-tagged human FcγRIIIA (R&D, …); assay: as above; remark: listed apart in the source

T1 sequence (P12314 16-288 limits assumed): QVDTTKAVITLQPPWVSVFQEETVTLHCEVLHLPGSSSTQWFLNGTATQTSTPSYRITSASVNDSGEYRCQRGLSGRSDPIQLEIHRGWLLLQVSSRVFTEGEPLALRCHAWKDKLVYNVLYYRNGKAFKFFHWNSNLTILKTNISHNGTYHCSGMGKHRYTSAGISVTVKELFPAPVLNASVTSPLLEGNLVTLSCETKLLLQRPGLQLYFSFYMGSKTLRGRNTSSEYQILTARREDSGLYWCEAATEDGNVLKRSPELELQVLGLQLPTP
T3 sequence (P08637 17-208 limits assumed): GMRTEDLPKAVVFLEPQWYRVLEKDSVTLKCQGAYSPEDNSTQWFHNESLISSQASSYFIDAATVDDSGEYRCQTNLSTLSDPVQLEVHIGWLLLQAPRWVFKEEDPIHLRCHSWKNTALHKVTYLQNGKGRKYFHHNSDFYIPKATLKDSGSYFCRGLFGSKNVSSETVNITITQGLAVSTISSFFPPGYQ
T4 sequence (P12314 16-288 limits assumed): as the sequence (P12314 16-288 limits assumed) above
T8 sequence (P08637 17-208 limits assumed): as the sequence (P08637 17-208 limits assumed) above
T5 sequence (P07766 23-207, chain 1 of 4): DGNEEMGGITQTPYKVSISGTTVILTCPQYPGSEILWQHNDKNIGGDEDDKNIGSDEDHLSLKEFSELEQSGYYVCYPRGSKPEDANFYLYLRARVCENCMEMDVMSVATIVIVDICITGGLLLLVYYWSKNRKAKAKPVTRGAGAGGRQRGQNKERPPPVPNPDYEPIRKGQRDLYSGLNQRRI
T5 sequence (P09693 23-182, chain 2 of 4, further chain): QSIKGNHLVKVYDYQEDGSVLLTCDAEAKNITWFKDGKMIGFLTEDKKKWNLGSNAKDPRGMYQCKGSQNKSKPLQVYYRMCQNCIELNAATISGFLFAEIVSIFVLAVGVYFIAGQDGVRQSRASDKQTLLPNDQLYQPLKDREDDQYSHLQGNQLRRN
T5 sequence (P04234 22-171, chain 3 of 4, further chain): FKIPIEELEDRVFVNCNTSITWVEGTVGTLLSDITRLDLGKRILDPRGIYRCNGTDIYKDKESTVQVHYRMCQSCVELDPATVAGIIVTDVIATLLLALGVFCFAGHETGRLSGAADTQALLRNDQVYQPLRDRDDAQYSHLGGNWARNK
T5 sequence (P20963 22-164, chain 4 of 4, further chain): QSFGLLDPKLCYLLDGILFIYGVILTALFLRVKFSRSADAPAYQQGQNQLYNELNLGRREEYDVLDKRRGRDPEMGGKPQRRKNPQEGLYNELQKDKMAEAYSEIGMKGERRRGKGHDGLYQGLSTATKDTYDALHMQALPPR
Human C1q (EMD Millipore), sequence (P02745 23-245 limits assumed, chain 1 of 3): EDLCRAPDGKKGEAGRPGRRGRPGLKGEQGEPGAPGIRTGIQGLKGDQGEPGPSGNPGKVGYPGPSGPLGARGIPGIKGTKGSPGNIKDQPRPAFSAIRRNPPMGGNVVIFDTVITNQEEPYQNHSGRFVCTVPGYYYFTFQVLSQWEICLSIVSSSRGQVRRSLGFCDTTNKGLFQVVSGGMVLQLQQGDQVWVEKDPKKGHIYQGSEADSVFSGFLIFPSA
Human C1q (EMD Millipore), sequence (P02746 28-253 limits assumed, chain 2 of 3): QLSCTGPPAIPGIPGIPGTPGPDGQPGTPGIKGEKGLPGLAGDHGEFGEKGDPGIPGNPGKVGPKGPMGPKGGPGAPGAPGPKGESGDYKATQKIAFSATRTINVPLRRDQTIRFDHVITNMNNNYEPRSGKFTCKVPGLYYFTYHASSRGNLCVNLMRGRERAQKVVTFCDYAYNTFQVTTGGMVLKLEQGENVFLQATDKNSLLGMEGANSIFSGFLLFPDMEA
Human C1q (EMD Millipore), sequence (P02747 29-245 limits assumed, chain 3 of 3): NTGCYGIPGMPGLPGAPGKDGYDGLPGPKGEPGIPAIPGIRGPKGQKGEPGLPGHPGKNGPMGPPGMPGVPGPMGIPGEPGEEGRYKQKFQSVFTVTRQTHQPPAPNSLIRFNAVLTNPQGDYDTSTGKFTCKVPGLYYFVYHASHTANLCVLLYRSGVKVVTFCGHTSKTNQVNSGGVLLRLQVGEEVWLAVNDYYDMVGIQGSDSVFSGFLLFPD
T2 sequence (P55899 24-297 limits assumed, chain 1 of 2): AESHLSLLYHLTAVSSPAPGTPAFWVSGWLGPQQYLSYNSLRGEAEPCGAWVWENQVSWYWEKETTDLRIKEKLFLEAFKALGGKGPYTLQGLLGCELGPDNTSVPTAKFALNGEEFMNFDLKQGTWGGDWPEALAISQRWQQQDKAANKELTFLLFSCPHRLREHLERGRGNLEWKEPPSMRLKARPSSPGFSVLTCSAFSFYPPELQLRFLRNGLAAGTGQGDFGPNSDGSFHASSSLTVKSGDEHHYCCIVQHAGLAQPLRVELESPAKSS
T2 sequence (P61769 21-119 limits assumed, chain 2 of 2): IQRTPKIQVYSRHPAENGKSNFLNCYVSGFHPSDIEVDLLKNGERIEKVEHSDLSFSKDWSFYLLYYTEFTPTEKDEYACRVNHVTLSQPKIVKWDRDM

B1: mAb1 IgG1 (antibody)
heavy: not shown
light: QVVLTQSPAIMSAFPGEKVTMTCSASSSVSYMNWYQQKSGTSPKRWIYDSSKLASGVPARFSGSGSGTSYSLTISSMETEDAATYYCQQWSRNPPTFGGGTKLQITRTVAAPSVFIFPPSDEQLKSGTASVVCLLNNFYPREAKVQWKVDNALQSGNSQESVTEQDSKDSTYSLSSTLTLSKADYEKHKVYACEVTHQGLSSPVTKSFNRGEC
notes: Human IgG1 antibody specific to human CD3, wild-type Fc; also called unmodified IgG; unmutated mAb1 IgG1
For B1, the koff [1] was 0.00729 s⁻¹, the kon [1] was 64900 M⁻¹ s⁻¹ and the Kd [2] was 112 nM. For the same binder, the Kd [3] was 243 nM, the Kd [4] was 470 nM and the koff [5] was 0.0214 s⁻¹. It also gave a kon [5] of 31800 M⁻¹ s⁻¹, a Kd [6] of 674 nM and a Kd [7] of 956 nM. For the same binder, the Kd [8] was 30 nM, the IC50 [9] was 2.27 nM and the “IC50 relative to IgG1” value [9] was 1 fold. For the same binder, the “EC50 (read off the curve)” value [10] was ~0.1 nM, the “IC50 (read off the curve)” value [11] was ~200 nM and the “IC50 (read off the curve)” value [12] was ~200 nM. For the same binder, the “IC50 (read off the curve)” value [13] was ~200 nM, the “IC50 (read off the curve)” value [14] was ~40 nM and the “IC50 (read off the curve)” value [15] was ~40 nM.
